From the supplement of paper PMC11246515 come the findings set out here.

The series can be described thus: total protein half-life in vivo (active degradation + dilution); higher = more stable protein.
[1] abbreviates: E. coli NCM3722 delta-clpP delta-lon delta-hslV, growth: N-lim chemostat, doubling time 6 h.
The mark [2] stands for this setting: E. coli NCM3722 delta-clpP, growth: N-lim chemostat, doubling time 6 h.
The mark [3] stands for this setting: E. coli NCM3722 delta-hslV, growth: N-lim chemostat, doubling time 6 h.
[4] abbreviates: E. coli NCM3722 delta-lon, growth: N-lim chemostat, doubling time 6 h.
Setting [5] is: E. coli NCM3722 delta-smpB, growth: N-lim chemostat, doubling time 6 h.
Setting [6] is: wild type E. coli NCM3722, growth: C-lim chemostat, doubling time 3 h.
The mark [7] stands for this setting: wild type E. coli NCM3722, growth: C-lim chemostat, doubling time 6 h.
The mark [8] stands for this setting: wild type E. coli NCM3722, growth: C-lim chemostat, doubling time 12 h.
[9] abbreviates: wild type E. coli NCM3722, growth: N-lim chemostat, doubling time 6 h.
Where [10] appears, read: wild type E. coli NCM3722, growth: N-lim chemostat, doubling time 12 h.
Setting [11] is: wild type E. coli NCM3722, growth: P-lim chemostat, doubling time 6 h.
The mark [12] stands for this setting: wild type E. coli NCM3722, growth: P-lim chemostat, doubling time 12 h.

± gives the standard deviation of the averaged measurements. Where only a bound is given, the exact number is not on record here.

In the case of “MKLAHLGRQALMGVMAVALVAGMSVKSFADEGLLNKVKERGTLLVGLEGTYPPFSFQGDDGKLTGFEVEFAQQLAKHLGVEASLKPTKWDGMLASLDSKRIDVVINQVTISDERKKKYDFSTPYTISGIQALVKKGNEGTIKTADDLKGKKVGVGLGTNYEEWLRQNVQGVDVRTYDDDPTKYQDLRVGRIDAILVDRLAALDLVKKTNDTLAVTGEAFSRQESGVALRKGNEDLLKAVNDAIAEMQKDGTLQALSEKWFGADVTK [P0AEM9]”, the “total protein half-life in vivo” value under setting [1] came to 6.22 ± 0.52 h; the “total protein half-life in vivo” value under setting [2] was 5.74 ± 0.64 h; the “total protein half-life in vivo” value under setting [3] worked out at 6.87 ± 0.34 h; the “total protein half-life in vivo” value under setting [4] came to 7.33 ± 0.21 h; the “total protein half-life in vivo” value under setting [5] was 6.54 ± 0.16 h; the “total protein half-life in vivo” value under setting [6] was found to be 3.47 ± 0.28 h. Moreover, the “total protein half-life in vivo” value under setting [7] was 6.27 ± 0.63 h; the “total protein half-life in vivo” value under setting [8] is 12.5 ± 2.1 h; the “total protein half-life in vivo” value under setting [9] was 5.71 ± 0.61 h; the “total protein half-life in vivo” value under setting [10] was 14.1 ± 1.8 h; the “total protein half-life in vivo” value under setting [11] was determined as 5.95 ± 0.58 h; the “total protein half-life in vivo” value under setting [12] came out at 14.49 ± 0.065 h.

For “MSGTLLAFDFGTKSIGVAVGQRITGTARPLPAIKAQDGTPDWNIIERLLKEWQPDEIIVGLPLNMDGTEQPLTARARKFANRIHGRFGVEVKLHDERLSTVEARSGLFEQGGYRALNKGKVDSASAVIILESYFEQGY [P0A8I1]”, the “total protein half-life in vivo” value under setting [1] worked out at 4.82 ± 0.066 h; the “total protein half-life in vivo” value under setting [2] is 4.88 h; the “total protein half-life in vivo” value under setting [3] worked out at 3.57 ± 0.011 h; the “total protein half-life in vivo” value under setting [4] stood at 4.27 ± 0.32 h; the “total protein half-life in vivo” value under setting [5] turned out to be 3.5663 ± 0.00095 h; the “total protein half-life in vivo” value under setting [6] was 2.88 ± 0.18 h. Moreover, the “total protein half-life in vivo” value runs as follows: under setting [7], 5.4 ± 0.77 h; under setting [8], 10.2 ± 0.33 h; under setting [9], 3.8577 ± 0.0028 h; under setting [10], 7.41 ± 2.2 h; under setting [11], 4.95 ± 0.11 h; under setting [12], 8.63 ± 2.5 h.

Take “MICRFIDTHCHFDFPPFSGDEEASLQRAAQAGVGKIIVPATEAENFARVLALAENYQPLYAALGLHPGMLEKHSDVSLEQLQQALERRPAKVVAVGEIGLDLFGDDPQFERQQWLLDEQLKLAKRYDLPVILHSRRTHDKLAMHLKRHDLPRTGVVHGFSGSLQQAERFVQLGYKIGVGGTITYPRASKTRDVIAKLPLASLLLETDAPDMPLNGFQGQPNRPEQAARVFAVLCELRREPADEIAQALLNNTYTLFNVP”: the “total protein half-life in vivo” value under setting [1] is 5.92 ± 0.41 h; the “total protein half-life in vivo” value under setting [2] was determined as 4.26 ± 0.21 h; the “total protein half-life in vivo” value under setting [3] was 4.72 ± 0.12 h; the “total protein half-life in vivo” value under setting [4] worked out at 6.38 ± 1.4 h; the “total protein half-life in vivo” value under setting [5] was 4.45 ± 0.36 h; the “total protein half-life in vivo” value under setting [6] turned out to be 3.12 ± 0.34 h. Moreover, the “total protein half-life in vivo” value under setting [7] was above 8 h; the “total protein half-life in vivo” value under setting [8] is 9.45 ± 4.5 h; the “total protein half-life in vivo” value under setting [9] was found to be 4.57 ± 0.41 h; the “total protein half-life in vivo” value under setting [10] was 8.41 ± 1.9 h; the “total protein half-life in vivo” value under setting [12] stood at 12.3 ± 0.15 h.

Take “MENNRNFPARQFHSLTFFAGLCIGITPVAQALAAEGQTNADDTLVVEASTPSLYAPQQSADPKFSRPVADTTRTMTVISEQVIKDQGATNLTDALKNVPGVGAFFAGENGNSTTGDAIYMRGADTSNSIYIDGIRDIGSVSRDTFNTEQVEVIKGPSGTDYGRSAPTGSINMISKQPRNDSGIDASASIGSAWFRRGTLDVNQVIGDTTAVRLNVMGEKTHDAGRDKVKNERYGVAPSVAFGLGTANRLYLNYLHVTQHNTPDGGIPTIGLPGYSAPSAGTAALNHSGKVDTHNFYGTDSDYDDSTTDTATMRFEHDINDNTTIRNTTRWSRVKQDYLMTAIMGGASNITQPTSDVNSWTWSRTANTKDVSNKILTNQTNLTSTFYTGSIGHDVSTGVEFTRETQTNYGVNPVTLPAVNIYHPDSSIHPGGLTRNGANANGQTDTFAIYAFDTLQITRDFELNGGIRLDNYHTEYDSATACGGSGRGAITCPTGVAKGSPVTTVDTAKSGNLMNWKAGALYHLTENGNVYINYAVSQQPPGGNNFALAQSGSGNSANRTDFKPQKANTSEIGTKWQVLDKRLLLTAALFRTDIENEVEQNDDGTYSQYGKKRVEGYEISVAGNITPAWQVIGGYTQQKATIKNGKDVAQDGSSSLPYTPEHAFTLWSQYQATDDISVGAGARYIGSMHKGSDGAVGTPAFTEGYWVADAKLGYRVNRNLDFQLNVYNLFDTDYVASINKSGYRYHPGEPRTFLLTANMHF”: the “total protein half-life in vivo” value is, setting by setting: under setting [6], 3.14 ± 0.17 h; under setting [8], above 16 h; under setting [9], above 8 h; under setting [10], above 16 h.

For “MAKERALTLEALRVMDAIDRRGSFAAAADELGRVPSALSYTMQKLEEELDVVLFDRSGHRTKFTNVGRMLLERGRVLLEAADKLTTDAEALARGWETHLTIVTEALVPTPAFFPLIDKLAAKANTQLAIITEVLAGAWERLEQGRADIVIAPDMHFRSSSEINSRKLYTLMNVYVAAPDHPIHQEPEPLSEVTRVKYRGIAVADTARERPVLTVQLLDKQPRLTVSTIEDKRQALLAGLGVATMPYPMVEKDIAEGRLRVVSPESTSEIDIIMAWRRDSMGEAKSWCLREIPKLFNGK”, the “total protein half-life in vivo” value by setting is: under setting [1], 5.43 ± 0.44 h; under setting [2], 5.71 ± 0.84 h; under setting [3], 5.26 ± 0.14 h; under setting [4], 5.85 ± 0.25 h; under setting [5], 5.34 ± 0.25 h; under setting [6], 3.01 ± 0.2 h. Also, the “total protein half-life in vivo” value is, setting by setting: under setting [7], 5.658 ± 0.043 h; under setting [8], 11.2 ± 0.74 h; under setting [9], 5.54 ± 0.4 h; under setting [10], 10.9 ± 0.25 h; under setting [11], 6.09 ± 0.32 h; under setting [12], 11.5 ± 0.97 h.

“MKVLIVESEFLHQDTWVGNAVERLADALSQQNVTVIKSTSFDDGFAILSSNEAIDCLMFSYQMEHPDEHQNVRQLIGKLHERQQNVPVFLLGDREKALAAMDRDLLELVDEFAWILEDTADFIAGRAVAAMTRYRQQLLPPLFSALMKYSDIHEYSWAAPGHQGGVGFTKTPAGRFYHDYYGENLFRTDMGIERTSLGSLLDHTGAFGESEKYAARVFGADRSWSVVVGTSGSNRTIMQACMTDNDVVVVDRNCHKSIEQGLMLTGAKPVYMVPSRNRYGIIGPIYPQEMQPETLQKKISESPLTKDKAGQKPSYCVVTNCTYDGVCYNAKEAQDLLEKTSDRLHFDEAWYGYARFNPIYADHYAMRGEPGDHNGPTVFATHSTHKLLNALSQASYIHVREGRGAINFSRFNQAYMMHATTSPLYAICASNDVAVSMMDGNSGLSLTQEVIDEAVDFRQAMARLYKEFTADGSWFFKPWNKEVVTDPQTGKTYDFADAPTKLLTTVQDCWVMHPGESWHGFKDIPDNWSMLDPIKVSILAPGMGEDGELEETGVPAALVTAWLGRHGIVPTRTTDFQIMFLFSMGVTRGKWGTLVNTLCSFKRHYDANTPLAQVMPELVEQYPDTYANMGIHDLGDTMFAWLKENNPGARLNEAYSGLPVAEVTPREAYNAIVDNNVELVSIENLPGRIAANSVIPYPPGIPMLLSGENFGDKNSPQVSYLRSLQSWDHHFPGFEHETEGTEIIDGIYHVMCVKA”: the “total protein half-life in vivo” value under setting [1] came out at 5.82 ± 0.47 h; the “total protein half-life in vivo” value under setting [2] is 4.96 ± 1.1 h; the “total protein half-life in vivo” value under setting [3] came out at 6.09 ± 0.29 h; the “total protein half-life in vivo” value under setting [4] came to 5.74 ± 0.22 h; the “total protein half-life in vivo” value under setting [5] is 5.38 ± 0.21 h; the “total protein half-life in vivo” value under setting [6] stood at 3.193 ± 0.023 h. The “total protein half-life in vivo” value is 5.14 ± 0.23 h under setting [7]; 11.5 ± 0.12 h under setting [8]; 6.03 ± 0.28 h under setting [9]; 12.1 ± 2 h under setting [10]; 6.14 ± 0.3 h under setting [11]; 11.5 ± 0.15 h under setting [12].
